Tested on: Pseudomonas fluorescens HPPD polypeptide (wild-type and mutants)
Assay: Coupled HPPD activity assay: turnover and residual turnover in crude HPPD polypeptide extracts with and without Cmpd. 1
Type: biochemical
Conditions: for Turnover: absence of Cmpd. 1; for Turnover / Residual turnover: changes in absorbance (OD) at 320 nm in the coupled assay, 30 min; for Residual turnover: presence of 100 μM Cmpd. 1; for Residual turnover [%]: 100 μM Cmpd. 1, normalised to turnover without inhibitor
Protocol: For the generation of crude HPPD polypeptide extract in micro titer plates (MTP) for the determination of residual activity in inhibition assays, cells were grown in 40 or 150 μl LB medium containing 1% Glucose (Merck, Darmstadt, Germany) and 100 μg/ml ampicillin in a standard 96 well plate (Thermo Fisher Scientific, Waltham, USA) incubated for about 18 h in a humidity incubator at 37° C. 30 μl of this starter culture were added to 600 μl LB medium containing 100 μg/ml ampicillin and 150 mM Hepes (Merck, Darmstadt, Germany) as inoculum for the expression culture in 96 well plates (2 ml deep wells; HJ Bioanalytik, Erkelenz, Germany). The plates were sealed by an aluminium foil, and cells were incubated for 5 h at 37° C. on a plate shaker at 750 rpm. The expression was induced by addition of IPTG in a final concentration of 1 mM followed by further sealed incubation for about 18 h at 30° C. on a plate shaker at 750 rpm.
Cells were harvested by centrifugation at 4° C., 2500 g for 15 min discarding the supernatant. Cell pellets were stored at −80° C. and lysed in 250 μl 1× BugBuster® (Merck, Darmstadt, Germany) in 140 mM Tris (pH 7.8), with 1:25000 diluted BNase® (Qiagen, Hilden, Germany) by incubation of the resuspended cells for 30 min at 4° C. and 1000 rpm. Lysates were clarified by centrifugation for 15 min at 4° C., 2500 g, and 150 μl supernatant were transferred in standard 96 well plate (Thermo Fisher Scientific, Waltham, USA) for subsequent testing in quadruplets.
The activity of HPPD polypeptides was determined in absence or presence of HPPD inhibitors using the coupled HPPD activity assay (FIG. 1).
For the determination of the residual activity, the apparent kinetic constant (kapp) of the determined substrate conversion was measured as kinetic changes in absorbance (OD) at 320 nm in a coupled assay, in that homogentisate (HGA) formed by HPPD from HPP is directly converted into the well absorbing molecule maleylacetoacetate (MAA) by a second enzyme homogentisate dioxygenase (HGD), applied in excess uniformly in all assays (see FIG. 1). The measurements were performed in 384 micro titer plates (Greiner Bio-One GmbH, Frickenhausen, Germany) by plate readers (Tecan infinite M1000 or M1000PRO, Tecan, Männedorf, Switzerland). The kcat/kM ratio of an enzymatic activity is proportional to the apparent kinetic constant kapp and is proportional to kcat/kM*[E] ([E]=enzyme concentration). […] As both kapp measurements in the presence and absence of inhibitor were performed by use of the identical enzyme sample, crude or purified, and thereby at the same enzyme concentration, the enzyme concentration eliminates from the calculation of residual activity and the ratio of both kapp directly indicates the change of kM due to the inhibition.
The assay solution used for determination of residual activities in raw HPPD polypeptide samples was composed by 200 mM sodium phosphate (Merck, Darmstadt, Germany, pH 7.0), 5 mM MgCl2 (Merck, Darmstadt, Germany), 20 mM ascorbate (Sigma-Aldrich, St. Louis, USA), 1 mM DTT (Sigma-Aldrich, St. Louis, USA), 0.1% Pluronic F-68 (Sigma-Aldrich, St. Louis, USA), 40 μM FeSO4 (Sigma-Aldrich, St. […] Louis, USA) and equilibrated for 20 min on ice.

Molecule | Turnover | Residual turnover | Residual turnover [%]
SEQ ID NO:3 (protein, mutant HPPD polypeptide) MADLYENPMGLMGFEFIEFASPTPGTLEPIFEIMGFTKVATHRSKNVHLYRQGEINLILNNEPNSIASYFAAEHGPSVCGMAFRVKDSQKAYNRALELGAQPIHIDTGPMELNLPAIKGIGGAPLYLIDRFGEGSSIYDIDFVYLEGVERNPVGAGLKVIDHLTHNVYRGRMVYWANFYEKLFNFREARYFDIKGEYTGLTSKAMSAPDGMIRIPLNEESSKGAGQIEEFLMQFNGEGIQHVAFLTDDLVKTWDALKKIGMRFMTAPGDEYYEMLEGRLPDHGEPVDQLQARGILLDGSSVEGDKRLLLQIFSEKLMGPVFFEFIQRKGDDGFGPDSFKVLFESIERDQVRRGVLTAD | 0.013 | 0.012 | 
SEQ ID NO:4 (protein, mutant HPPD polypeptide) MADLYENPMGLMGFEFIEFASPTPGTLEPIFEIMGFTKVATHRSKNVHLYRQGEINLILNNEPNSIASYFAAEHGPSVCGMAFRVKDSQKAYNRALELGAQPIHIDTGPMELNLPAIKGIGGAPLYLIDRFGEGSSIYDIDFVYLEGVERNPVGAGLKVIDHLTHNVYRGRMVYWANFYEKLFNFREARYFDIKGEYTGLTSKAMSAPDGMIRIPLNEESSKGAGQIEEFLMQFNGEGIQHVAFLTDDLVKTWDALKKIGMRFMTAPGDEYYEMLEGRLPDHGEPVDQLQARGILLDGSSVEGDKRLLLQIFSEQLMGPVFFEFIQRKGDDGFGPDSFKVLFESIERDQVRRGVLTAD | 0.121 | 0.06 | 50
SEQ ID NO:12 (protein, mutant HPPD polypeptide) MADLYENPMGLMGFEFIEFASPTPGTLEPIFEIMGFTKVATHRSKNVHLYRQGEINLILNNEPNSIASYFAAEHGPSVCGMAFRVKDSQKAYNRALELGAQPIHIDTGPMELNLPAIKGIGGAPLYLIDRFGEGSSIYDIDFVYLEGVERNPVGAGLKVIDHLTHNVYRGRMVYWANFYEKLFNFREARYFDIKGEYTGLTSKAMSAPDGMIRIPLNEESSKGAGQIEEFLMQFNGEGIQHVAFLTDDLVKTWDALKKIGMRFMTAPGDEYYEMLEGRLPDHGEPVDQLQARGILLDGSSVEGDKRLLLQIFSERLMGPVFFEFIQRKGDDGFGPDSFKVLFEQIERDQVRRGVLTAD | 0.189 | 0.076 | 40
SEQ ID NO:5 (protein, mutant HPPD polypeptide) MADLYENPMGLMGFEFIEFASPTPGTLEPIFEIMGFTKVATHRSKNVHLYRQGEINLILNNEPNSIASYFAAEHGPSVCGMAFRVKDSQKAYNRALELGAQPIHIDTGPMELNLPAIKGIGGAPLYLIDRFGEGSSIYDIDFVYLEGVERNPVGAGLKVIDHLTHNVYRGRMVYWANFYEKLFNFREARYFDIKGEYTGLTSKAMSAPDGMIRIPLNEESSKGAGQIEEFLMQFNGEGIQHVAFLTDDLVKTWDALKKIGMRFMTAPGDEYYEMLEGRLPDHGEPVDQLQARGILLDGSSVEGDKRLLLQIFSERLMGPVFFEFIQRKGDDGFGPDSFKVLFESIERDQVRRGVLTAD | 0.162 | 0.071 | 44
SEQ ID NO:10 (protein, mutant HPPD polypeptide) MADLYENPMGLMGFEFIEFASPTPGTLEPIFEIMGFTKVATHRSKNVHLYRQGEINLILNNEPNSIASYFAAEHGPSVCGMAFRVKDSQKAYNRALELGAQPIHIDTGPMELNLPAIKGIGGAPLYLIDRFGEGSSIYDIDFVYLEGVERNPVGAGLKVIDHLTHNVYRGRMVYWANFYEKLFNFREARYFDIKGEYTGLTSKAMSAPDGMIRIPLNEESSKGAGQIEEFLMQFNGEGIQHVAFLTDDLVKTWDALKKIGMRFMTAPGDEYYEMLEGRLPDHGEPVDQLQARGILLDGSSVEGDKRLLLQIFSEKLMGPVFFEFIQRKGDDGFGPDSFKVLFEQIERDQVRRGVLTAD | 0.018 | 0.021 | 
SEQ ID NO:6 (protein, mutant HPPD polypeptide) MADLYENPMGLMGFEFIEFASPTPGTLEPIFEIMGFTKVATHRSKNVHLYRQGEINLILNNEPNSIASYFAAEHGPSVCGMAFRVKDSQKAYNRALELGAQPIHIDTGPMELNLPAIKGIGGAPLYLIDRFGEGSSIYDIDFVYLEGVERNPVGAGLKVIDHLTHNVYRGRMVYWANFYEKLFNFREARYFDIKGEYTGLTSKAMSAPDGMIRIPLNEESSKGAGQIEEFLMQFNGEGIQHVAFLTDDLVKTWDALKKIGMRFMTAPGDEYYEMLEGRLPDHGEPVDQLQARGILLDGSSVEGDKRLLLQIFSETLMGPVFFEFIQRKGDDGFGPDSFKVLFESIERDQVRRGVLTAD | 0.159 | 0.052 | 33
SEQ ID NO:8 (protein, mutant HPPD polypeptide) MADLYENPMGLMGFEFIEFASPTPGTLEPIFEIMGFTKVATHRSKNVHLYRQGEINLILNNEPNSIASYFAAEHGPSVCGMAFRVKDSQKAYNRALELGAQPIHIDTGPMELNLPAIKGIGGAPLYLIDRFGEGSSIYDIDFVYLEGVERNPVGAGLKVIDHLTHNVYRGRMVYWANFYEKLFNFREARYFDIKGEYTGLTSKAMSAPDGMIRIPLNEESSKGAGQIEEFLMQFNGEGIQHVAFLTDDLVKTWDALKKIGMRFLTAPGDEYYEMLEGRLPDHGEPVDQLQARGILLDGSSVEGDKRLLLQIFSEQLMGPVFFEFIQRKGDDGFGPDSFKVLFESIERDQVRRGVLTAD | 0.124 | 0.082 | 66
SEQ ID NO:11 (protein, mutant HPPD polypeptide) MADLYENPMGLMGFEFIEFASPTPGTLEPIFEIMGFTKVATHRSKNVHLYRQGEINLILNNEPNSIASYFAAEHGPSVCGMAFRVKDSQKAYNRALELGAQPIHIDTGPMELNLPAIKGIGGAPLYLIDRFGEGSSIYDIDFVYLEGVERNPVGAGLKVIDHLTHNVYRGRMVYWANFYEKLFNFREARYFDIKGEYTGLTSKAMSAPDGMIRIPLNEESSKGAGQIEEFLMQFNGEGIQHVAFLTDDLVKTWDALKKIGMRFMTAPGDEYYEMLEGRLPDHGEPVDQLQARGILLDGSSVEGDKRLLLQIFSEQLMGPVFFEFIQRKGDDGFGPDSFKVLFEQIERDQVRRGVLTAD | 0.183 | 0.085 | 46
SEQ ID NO:7 (protein, mutant HPPD polypeptide) MADLYENPMGLMGFEFIEFASPTPGTLEPIFEIMGFTKVATHRSKNVHLYRQGEINLILNNEPNSIASYFAAEHGPSVCGMAFRVKDSQKAYNRALELGAQPIHIDTGPMELNLPAIKGIGGAPLYLIDRFGEGSSIYDIDFVYLEGVERNPVGAGLKVIDHLTHNVYRGRMVYWANFYEKLFNFREARYFDIKGEYTGLTSKAMSAPDGMIRIPLNEESSKGAGQIEEFLMQFNGEGIQHVAFLTDDLVKTWDALKKIGMRFLTAPGDEYYEMLEGRLPDHGEPVDQLQARGILLDGSSVEGDKRLLLQIFSEKLMGPVFFEFIQRKGDDGFGPDSFKVLFESIERDQVRRGVLTAD | 0.126 | 0.074 | 59
SEQ ID NO:9 (protein, mutant HPPD polypeptide) MADLYENPMGLMGFEFIEFASPTPGTLEPIFEIMGFTKVATHRSKNVHLYRQGEINLILNNEPNSIASYFAAEHGPSVCGMAFRVKDSQKAYNRALELGAQPIHIDTGPMELNLPAIKGIGGAPLYLIDRFGEGSSIYDIDFVYLEGVERNPVGAGLKVIDHLTHNVYRGRMVYWANFYEKLFNFREARYFDIKGEYTGLTSKAMSAPDGMIRIPLNEESSKGAGQIEEFLMQFNGEGIQHVAFLTDDLVKTWDALKKIGMRFLTAPGDEYYEMLEGRLPDHGEPVDQLQARGILLDGSSVEGDKRLLLQIFSETLMGPVFFEFIQRKGDDGFGPDSFKVLFESIERDQVRRGVLTAD | 0.109 | 0.071 | 65
